Laboratory results published in patent US20200385482A1.

What was measured:
[1] = molecular target: human C-type lectin domain family 2 member (hCLEC2D) expressed on transfected 300.19 cells (human) (UniProt Q9UHP7); test: FACS, hCLEC2D 300.19 cells, assay 1, Ab 1 ug/ml
[2] = molecular target: human C-type lectin domain family 2 member (hCLEC2D) expressed on transfected 300.19 cells (human) (UniProt Q9UHP7); test: FACS, hCLEC2D 300.19 cells, assay 2, Ab 1 ug/ml
[3] = molecular target: human C-type lectin domain family 2 member (hCLEC2D) expressed on transfected 300.19 cells (human) (UniProt Q9UHP7); test: FACS, hCLEC2D 300.19 cells, assay 1, Ab 0.1 ug/ml
[4] = molecular target: human C-type lectin domain family 2 member (hCLEC2D) expressed on transfected 300.19 cells (human) (UniProt Q9UHP7); test: FACS, hCLEC2D 300.19 cells, assay 2, Ab 0.1 ug/ml
[5] = molecular target: human C-type lectin domain family 2 member (hCLEC2D) expressed on transfected 300.19 cells (human) (UniProt Q9UHP7); test: FACS, hCLEC2D 300.19 cells, assay 1, Ab 0.01 ug/ml
[6] = molecular target: human C-type lectin domain family 2 member (hCLEC2D) expressed on transfected 300.19 cells (human) (UniProt Q9UHP7); test: FACS, hCLEC2D 300.19 cells, assay 2, Ab 0.01 ug/ml
[7] = molecular target: human C-type lectin domain family 2 member (hCLEC2D) expressed on transfected 300.19 cells (human) (UniProt Q9UHP7); test: FACS, hCLEC2D 300.19 cells, assay 1, Ab approx 10 ug/ml
[8] = molecular target: human C-type lectin domain family 2 member (hCLEC2D) expressed on transfected 300.19 cells (human) (UniProt Q9UHP7); test: FACS, hCLEC2D 300.19 cells, assay 2, Ab approx 10 ug/ml

Sequence of human C-type lectin domain family 2 member (hCLEC2D) expressed on transfected 300.19 cells (human) (Q9UHP7 whole entry, the tested form may be a part): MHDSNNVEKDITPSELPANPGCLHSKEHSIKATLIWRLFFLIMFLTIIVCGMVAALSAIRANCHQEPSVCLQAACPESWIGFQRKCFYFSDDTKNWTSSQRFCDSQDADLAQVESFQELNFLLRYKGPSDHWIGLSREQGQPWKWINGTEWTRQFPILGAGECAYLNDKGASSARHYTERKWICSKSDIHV

Cells PE-A Mean [1] | Cells PE-A Mean [2] | Cells PE-A Mean [3] | Cells PE-A Mean [4] | Cells PE-A Mean [5] | Cells PE-A Mean [6] | Cells PE-A Mean [7] | Cells PE-A Mean [8] | Binder
898 MFI | 898 MFI | 294 MFI | 294 MFI | 154 MFI | 154 MFI | 2370 MFI | 2370 MFI | Ab-16 (antibody, V domains shown) VH: EVQLVQSGGGVVQPGRSLRLSCAASGFTFSSYALSWVRQAPGKGLEWVSAISGGGGSTYYADSVKGRFTISRDNSKNTLYLQMNSLRAEDTAVYYCAKDVFPETFSMNYGMDVWGQGTLVTVSS VL: SSELTQDPAVSVALGQTVRITCQGDSLRSYYASWYQQKPGQAPVLVIYGKNNRPSGIPDRFSGSSSGNTASLTITGAQAEDEADYYCNSRDSSGNHYVFGTGTKVTVL
870 MFI | 870 MFI | 360 MFI | 360 MFI | 153 MFI | 153 MFI | 2950 MFI | 2950 MFI | Ab-31 (antibody, V domains shown) VH: QVQLVQSGAEVKKPGATVKVSCKVFGDTFRGLYIHWVRQAPGQGLEWMGGIIPIFGTANYAQKFQGRVTITTDESTSTAYMELSSLRSEDTAVYYCASGLRWGIWGWFDPWGQGTLVTVSS VL: EIVLTQSPATLSLSPGERATLSCRASQSIGNSLAWYQQKPGQAPRLLMYGASSRATGIPDRFSGSGAGTDFTLTISSLEPEDFATYYCQQHTIPTFSFGPGTKVEVK
1100 MFI | 1100 MFI | 298 MFI | 298 MFI | 166 MFI | 166 MFI | 3140 MFI | 3140 MFI | Ab-52 (antibody, V domains shown) VH: QVQLQESGGGVVQPGRSLRLSCSASGFTFSRHGMHWVRQAPGKGLEWVAVISHDGSVKYYADSMKGRFSISRDNSNNTLYLQMDSLRADDTAVYYCARGLSYQVSGWFDPWGQGTLVTVSS VL: NFMLTQPHSVSESPGKTVTISCTRSSGSIASNYVQWYQQRPGSAPTTVIYEDNQRPSGVPDRFSGSIDSSSNSASLTISGLKTEDEADYYCQSYDSTTPSVFGGGTKLTVL
